According to patent US20190153103A1 (AbbVie / Abbott, published 2019):

T1: human BMPR1B coated on MSD plates (construct not stated) (human, UniProt O00238 14-126, limits assumed)
T1 construct: also called BMPR1B receptor
T1 sequence: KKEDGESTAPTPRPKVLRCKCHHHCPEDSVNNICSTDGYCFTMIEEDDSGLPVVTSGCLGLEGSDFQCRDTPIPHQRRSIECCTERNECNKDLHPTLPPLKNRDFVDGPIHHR

T2: hBMPR1B-His (human BMPR1B extracellular domain, residues K14 to R126, with C-terminal 9x-Histidine tag) (human, UniProt O00238 14-126)
T2 construct: Residues K14-R126 are counted on the hBMPR1B ORF (NM_001203); The IgK signal peptide of the vector is left out; also called hBMPR1B-CHis; human BMPR1B-his
T2 sequence: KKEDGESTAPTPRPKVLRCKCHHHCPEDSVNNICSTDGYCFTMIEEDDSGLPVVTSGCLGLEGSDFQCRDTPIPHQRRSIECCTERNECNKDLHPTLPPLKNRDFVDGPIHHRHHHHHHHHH

T3: rat-his
T3 construct: soluble analyte of the Biacore runs; also called rSCRx91-his; rBMPR1B-CHis
T3 chain: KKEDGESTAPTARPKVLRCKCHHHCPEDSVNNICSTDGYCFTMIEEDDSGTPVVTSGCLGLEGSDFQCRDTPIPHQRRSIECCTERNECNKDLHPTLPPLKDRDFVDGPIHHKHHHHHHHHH


How the values were obtained:
[1] = target: T1, human BMPR1B coated on MSD plates …; assay: MSD ELISA, BMP4 blocked; set-up: concentration or dose not given beside the values
[2] = target: T4, human BMPR1B overexpressed on the surface of HEK293T cells (N-terminal Asp-Lys epitope tag, … (human, UniProt O00238 14-502)); assay: cell-based or functional assay
[3] = target: T5, rat BMPR1B overexpressed on the surface of HEK293T cells (N-terminal Asp-Lys epitope tag, … (rat, UniProt A0A8I6A0G0 62-550)); assay: cell-based or functional assay
T5 sequence (chain, as listed by the source): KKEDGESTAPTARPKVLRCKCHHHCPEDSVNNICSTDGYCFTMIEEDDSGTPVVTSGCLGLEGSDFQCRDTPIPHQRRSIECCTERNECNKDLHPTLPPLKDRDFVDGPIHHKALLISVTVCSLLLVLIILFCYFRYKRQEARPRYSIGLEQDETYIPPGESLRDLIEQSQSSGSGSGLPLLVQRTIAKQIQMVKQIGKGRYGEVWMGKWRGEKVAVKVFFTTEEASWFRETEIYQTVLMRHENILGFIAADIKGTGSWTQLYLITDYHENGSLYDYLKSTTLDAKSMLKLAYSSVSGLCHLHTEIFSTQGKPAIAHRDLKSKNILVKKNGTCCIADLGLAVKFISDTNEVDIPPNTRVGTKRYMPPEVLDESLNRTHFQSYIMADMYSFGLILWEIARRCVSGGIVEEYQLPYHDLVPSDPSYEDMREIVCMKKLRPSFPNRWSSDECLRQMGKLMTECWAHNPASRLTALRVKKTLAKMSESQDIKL

[4] = target: T6, cynomolgus BMPR1B overexpressed on the surface of HEK293T cells (N-terminal Asp-Lys epitope tag, … (cynomolgus)); assay: cell-based or functional assay
[5] = target: T4, human BMPR1B overexpressed on the …; assay: flow cytometry
[6] = target: T5, rat BMPR1B overexpressed on the surface …; assay: flow cytometry
[7] = target: T6, cynomolgus BMPR1B overexpressed on the …; assay: flow cytometry
[8] = target: T1, human BMPR1B coated on MSD plates …; assay: MSD ELISA, BMP2 blocked; set-up: concentration or dose not given beside the values
[9] = target: T7, Cyno-his (cynomolgus); assay: Biacore
T7 construct: extracellular domain; soluble analyte of the Biacore runs; also called cSCRx91-his; cBMPR1B-CHis

[10] = target: T2, hBMPR1B-His (human BMPR1B extracellular …); assay: Biacore
[11] = target: T3, rat-his; assay: Biacore

Binder	% inhibition [1] [%]	% live, Fab-saporin, 250pM [2] [%]	% live, Fab-saporin, 250pM [3] [%]	% live, Fab-saporin, 250pM [4] [%]	gMFI [5]	gMFI [6]	gMFI [7]	% inhibition [8] [%]	Kd [9] [nM]	Kd [10] [nM]	Kd [11] [nM]	binding result [11]
SC91.129 (antibody, V domains shown, copies: 2 + 2) VH: QVQLQQPGAELVKPGASVKLSCKASGYTFTNYWMQWVKQRPGQGLEWIGEIDPSDRYTLYNQKFKDKATLTVDTSSSTAYMQLSSLTSEDSAVYYCARFGYYVDYWGQGTTLTVSS VL: DAVMTQSPLSLPVSLGDQASISCRSSQSLVHSTGNTYLHWYLQKPGQSPKLLIYKVSNRFSGVPDRFSGSGSGTDFTLKISRVEAEDLGVYFCSQTTHVPFTFGSGTKLEIK	83	23.1	39.2	18.5	26900	10200	16000	40	1.62	0.564	0.561	–
SC91.172 (antibody, V domains shown) VH: QVQLQQPGADLVKPGTSVKLSCKASGYTFTSYWMQWVKQRPGQGLEWIGEIDPSDTYTMYNQKFKGKATLTVDTSSSTAYMQLSSLTSEDSAVYYCARFGYYVDYWGQGTTLTVSS VL: DVVMTQTPLSLPVSLGDQASISCRSSQSLVHSTGNTYLHWYLQKAGQSPKLLIYKVSNRFSGVPDRFSGSGSGTDFTLKISRVEAEDLGVYFCSQSTHVPFTFGSGTKLEIK	81	19.6	34.1	18	24000	9510	15000	51	4.47	1.96	1.18	–
SC91.149 (antibody, V domains shown) VH: QVQLLQPGAELVKPGSSVKVSCKASGYTFTNYWMQWVKQRPGQGLEWIGEIDPSDTYTLYNQKFKGKATLTVDTSSSTAYMQLSSLTSEDSAVYYCARFGYYVDYWGQGTTLTVSS VL: DVVMTQTPLSLPVSLGDQASISCRSSQSLVHSTGNTYFHWYLQKPGQSPELLIYKVSNRFSGVPDRFRGSGSGTDFTLKISRVEAEDLGVYFCSQSTHVPFTFGSGTKLEIK	84	18.3	29.1	20.7	27000	10600	15400	47	2	1.03	< 0.1	–
SC91.160 (antibody, V domains shown) VH: QIQLVQSGPELKKPGETVKISCKASGYTFTTYGMNWVKQAPGKGLKWMGWINTYSGVPSSADDFKGRFAFSLETSASTAYLLINNLKNEDTATYFCARSELRNWYFDVWGTGTTVTVSS VL: SFVMTQTPKFLLVSAGDRVTITCKASQNMGHDVAWYQQKPGQSPKLLIYSASNRYTGVPDRFTGSGYGTDFTFTISTVQAEDLAVYFCQQDYSSPFTFGSGTKLEMK	79	24.3	77.9	34.6	27000	–	15800	47	38.8	3.12	–	binds
SC91.111 (antibody, V domains shown, copies: 2 + 2) VH: QIQLVQSGPELKKPGETVKISCKASGYTLTTYGMNWVKQAPGKGLKWMGWINTYSGVPAYADDFKGRFAFSLETSASTAYLQINNFKNEDTATYFCARSELRNWYFDVWGTGTTVTVSS VL: SFVMTQTPKFLLVSAGDRVTITCKASQNMGHNVAWYQQKPGQSPKLLIYYASNRYTGVPDRFTGSGYGTDFTFTISTVQAEDLAVYFCQQDYSSPFTFGSGTKLEIK	69	20.3	87.1	52.9	25200	3810	9120	36	–	6.67	–	–
SC91.119 (antibody, V domains shown) VH: QVTLKESGPGILQPSQTLSLTCSFSGLSLSTPGMSVGWIRQPSGKGLEWLAHIWWNDDKSYNPALKSRLTISKDTSNNQVFLKIASVVTADTATYYCARGDRFAYWGQGTLVTVSA VL: not shown	65	24.9	40.8	34.7	17300	7510	11500	35	5.52	6.44	5.35	–
SC91.146 (antibody, V domains shown) VH: QVQLQQPGAELVKPGASVKLSCKASGYTFTSYWMHWVKQRPGQGLEWIGDIDPSDRYTNYNQKFKGKATLTVDTTSSTAYMQLSSLTSEDSAVYYCAISGWDYFDYWGQGTTLTVSS VL: not shown	79	20.5	38.8	25.4	15800	6220	10900	29	< 0.1	1.21	< 2	–

The remaining binders from weak to strong by Kd [10], led by results:

% inhibition [1] [%]	% live, Fab-saporin, 250pM [2] [%]	% live, Fab-saporin, 250pM [3] [%]	% live, Fab-saporin, 250pM [4] [%]	gMFI [5]	gMFI [6]	gMFI [7]	% inhibition [8] [%]	Kd [9] [nM]	Kd [10] [nM]	Kd [11] [nM]	binding result [11]	Binder
83	19.1	36.7	24.2	25900	9680	14800	37	5.58	2.86	3.25	–	SC91.187 (antibody, V domains shown) VH: QVQLQQPGPEFVKPGASVKLSCKASGYTFTSYWVQWVKQRPGQGLEWIGEIDPSDNYTLYNQNFKGKATLTVDTSSSTAYMQLSSLTSEDSAVYYCARFGFYVDYWGQGTTLTVSS VL: DVVMTQTPLSLPVSLGEQASISCRSSQSLVHSTGNTYLHWYLQKPGQSPKLLIYKVSNRFSGVPDRFSGSGSGTDFTLKISRVEAEDLGVYFCSQSTHVPFTFGSGTKLEIK
79	29.3	81.1	45.1	25300	7690	14600	49	–	1.12	–	binds	SC91.155 (antibody, V domains shown) VH: QIQLVQSGPELKKPGETVKISCKASGYTFTTYGMNWVKQAPGKGLKWMGWINSYSGVPAYADDFKGRFAFSLETFASTAYLQINNLRDEDTATYFCARSELRNWYFDVWGTGTTVTVSS VL: SFVMTQTPKFLLVSAGDRVTITCKASQNLGNDVAWYQQKPGQSPRLLIYFASNRYTGVPDRFTGSGYGTDFTFTISTVQAEDLAVYFCQQDYSSPFTFGSGTKLEIK
79	21	37.3	17.6	24500	9660	16000	10	0.937	0.658	1.84	–	SC91.138 (antibody, V domains shown) VH: QVQLQQPGAELVMPGASVKLSCKASGYTFTNYWMHWVKQRPGQGLEWIGEIDPSDVYTTYNQKFKDKATLTVDKSSSTAYMQLINLTSEDSAVYYCARSGWDYFDYWGQGTALTVSS VL: not shown
